Assay results taken from PMC12096946, “Structural analysis of genetic variants of the human tumor suppressor PALB2 coiled-coil domain” (Bioscience Reports, 2025).

Molecular target: the molecule itself
Experiment: SEC; analytical size exclusion chromatography, Superdex75 column; 50 mM Na2HPO4, 150 mM NaCl, 5 mM DTT, pH 6.5; mass from molecular weight standards

B1: human PALB2 coiled-coil domain (PALB2cc, residues 6-42) (domain or fragment, UniProt Q86YC2 6-42, looked up)
chain: GKPLSCEEKEKLKEKLAFLKREYSKTLARLQRAQRAE
notes: PALB2 (partner and localizer of BRCA2), human, N-terminal coiled-coil domain, residues 6-42 of the 1186-amino-acid protein; A methionine was introduced before the domain for CNBr cleavage of the His-GB1 tag; The NMR sample was uniformly 13C,15N labelled; The methods of the CD experiments say that PALB2cc peptides were synthesized; also called wt-PALB2cc; source: E. coli BL21-DE3, purified …
With B1 the “stoichiometry N” value was 2.

B2: S10E, S29E-PALB2cc (peptide, UniProt Q86YC2 6-42, looked up)
chain: GKPLECEEKEKLKEKLAFLKREYEKTLARLQRAQRAE
notes: also called S10E, S29E phosphomimetic PALB2 coiled-coil domain; source: synthetic peptide (Lifetein technologies)
B2: binds.
